Data set [1] addresses T1, GRF9-CELD (Arabidopsis thaliana (Col-0?)) (UniProt Q8S9M3).
T1 sequence: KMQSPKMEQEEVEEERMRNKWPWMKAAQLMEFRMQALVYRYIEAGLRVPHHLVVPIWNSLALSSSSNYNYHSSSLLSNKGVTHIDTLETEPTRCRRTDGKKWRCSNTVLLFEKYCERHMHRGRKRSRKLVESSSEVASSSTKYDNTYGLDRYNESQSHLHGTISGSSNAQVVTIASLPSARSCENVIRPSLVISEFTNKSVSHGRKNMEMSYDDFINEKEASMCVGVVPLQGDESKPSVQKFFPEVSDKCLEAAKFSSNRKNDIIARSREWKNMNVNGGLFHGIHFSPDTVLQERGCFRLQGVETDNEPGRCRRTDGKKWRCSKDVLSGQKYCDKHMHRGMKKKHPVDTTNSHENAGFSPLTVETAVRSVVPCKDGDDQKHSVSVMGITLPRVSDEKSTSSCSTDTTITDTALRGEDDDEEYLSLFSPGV
Description: CELD plate binding assay (streptavidin plate). The conditions noted are these: CELD plate assay: 25 mM HEPES/KOH pH 7.0, 50 mM KCl, 0.5 mM DTT, 10 uM ZnCl2, 0.15 ug/ul herring sperm DNA, 0.3 mg/ml BSA, 10% glycerol, 0.025% NP-40, 2 pmol ….

The target in data set [2] is T2, GRF9-CELD (Arabidopsis thaliana, UniProt Q8S9M3 2-431).
T2 sequence: T1 sequence
The data set can be described thus: competition; molar excess vs labelled N10; CELD plate assay: 25 mM HEPES/KOH pH 7.0, 50 mM KCl, 0.5 mM DTT, 10 uM ZnCl2, 0.15 ug/ul herring sperm DNA, 0.3 mg/ml BSA, 10% glycerol, 0.025% NP-40, 2 pmol probe; binding temperature not stated; EMSA buffer not given (cited protocols). The settings on record: protein: recombinant, tags: C-terminal CELD (cellulase D) fusion, 6xHis, label: none. On the technique in general: In EMSA bound probe runs differently from free probe, usually more slowly.

In data set [3] the target is T2, GRF9-CELD. Description: EMSA; CELD plate assay: 25 mM HEPES/KOH pH 7.0, 50 mM KCl, 0.5 mM DTT, 10 uM ZnCl2, 0.15 ug/ul herring sperm DNA, 0.3 mg/ml BSA, 10% glycerol, 0.025% NP-40, 2 pmol probe; binding temperature not stated; EMSA buffer not given (cited protocols). The settings on record: protein: recombinant; tags: C-terminal CELD (cellulase D) fusion, 6xHis; label: 5'-DY682; blunt.

Data set [4] concerns the target T2, GRF9-CELD. The data set can be described thus: CELD plate binding assay (streptavidin plate); 10 uM ZnCl2; CELD plate assay: 25 mM HEPES/KOH pH 7.0, 50 mM KCl, 0.5 mM DTT, 10 uM ZnCl2, 0.15 ug/ul herring sperm DNA, 0.3 mg/ml BSA, 10% glycerol, 0.025% NP-40, 2 pmol probe; binding temperature not stated; EMSA buffer not given (cited protocols). The settings on record: protein: recombinant; tags: C-terminal CELD (cellulase D) fusion, 6xHis; label: biotin.

Substitutions are numbered along the chain they refer to.

In the case of “AGGTAAGTTACTGACACACTCCATTCTTGG (double strand) [GRFE15]”, the binding signal (relative to GRFE1) in data set [1] is 0.8.

“CCGGTACTGGTCTGACATACCAGAACTTCA (double strand) [GRFE1]” yielded a binding signal (relative to GRFE1) in data set [1] of 1.

B1: ORG3 EMSA competitor (dsDNA)
DNA 1: CTTTCACTTCATACAACCTGACACCAAATCATCCACATCA
DNA 2: TGTGGATGATTTGGTGTCAGGTTGTATGAAGTGAAAG
In the case of B1, the binding result in the data set with GRF9-CELD [2] (3' overhang 3 nt on strand 1 (so in the source)) is given as “binds”.

B2: ORG3 EMSA mutated competitor (dsDNA)
DNA 1: B1 DNA 1 with T19G
DNA 2: TGATGTGGATGATTTGGTGTCCGGTTGTATGAAGTGAAAG
With B2, the binding result with GRF9-CELD [2] (blunt) is given as “no binding”.

B3: ORG3 promoter 40-bp EMSA probe (dsDNA)
DNA 1: B1 DNA 1
DNA 2: B2 DNA 2 with C22A
For the molecule B3, in the data set with GRF9-CELD [3], the binding result was “binds”.

B4: GRFE1m3 (dsDNA)
DNA 1: CCGGTACTGGTCTGACAAACCAGAACTTCA
DNA 2: TGAAGTTCTGGTTTGTCAGACCAGTACCGG
B4: in the data set with GRF9-CELD [4], the binding signal was 0.89 ± 0.08 relative to GRFE1.

B5: GRFE1m2 (dsDNA)
DNA 1: B4 DNA 1 with T11C, A18C
DNA 2: B4 DNA 2 with T13G, A20G
For B5, in the data set with GRF9-CELD [4], the binding signal was 0.43 ± 0.04 relative to GRFE1.

B6: GRFE1m1 (dsDNA)
DNA 1: B4 DNA 1 with T11A, A18C
DNA 2: B4 DNA 2 with T13G, A20T
As to B6, the binding signal in the data set with GRF9-CELD [4] is 0.79 ± 0.03 relative to GRFE1.

B7: GRFE1m6 (dsDNA)
DNA 1: B4 DNA 1 with T13G, A18T
DNA 2: B4 DNA 2 with T13A, A18C
B7: the binding signal with GRF9-CELD [4] was 0 relative to GRFE1.

B8: GRFE1m4 (dsDNA)
DNA 1: B4 DNA 1 with C12G, A18T
DNA 2: B4 DNA 2 with T13A, G19C
Regarding B8, the binding signal with GRF9-CELD [4] is 0 relative to GRFE1.

B9: GRFE1m5 (dsDNA)
DNA 1: B4 DNA 1 with A17T, A18T
DNA 2: B4 DNA 2 with T13A, T14A
Take B9: in the data set with GRF9-CELD [4], the binding signal was 0 relative to GRFE1.

B10: GRFE1m7 (dsDNA)
DNA 1: B4 DNA 1 with C16G, A18T
DNA 2: B4 DNA 2 with T13A, G15C
For the molecule B10, the binding signal with GRF9-CELD [4] was 0 relative to GRFE1.

(Values after article PMC6053248, “GROWTH-REGULATING FACTOR 9 negatively regulates arabidopsis leaf growth by controlling ORG3 and restricting cell proliferation in leaf primordia”.)
